Numbered stars: 1 amine (or outer) side, 2 acyl side, 3 side chain; on linkers, the order of the positions; unused ones are H or OH. Square brackets hold non-standard residues; d marks the D form. Peptide text beside a SMILES is read from it. * marks the point of attachment. DOTA = O=C(O)CN1CCN(CC(=O)O)CCN(CC(=O)*)CCN(CC(=O)O)CC1; Cha = N[C@@H](CC1CCCCC1)C(=O)O; X1 = O=C(CCC(=O)[*:2])CN[*:1]; 4Abz = Nc1ccc(C(=O)O)cc1; Nle = CCCC[C@H](N)C(=O)O; Ahx = NCCCCCC(=O)O
What was measured:
[1] = Radio-HPLC retention time as reflection of lipophilicity; format: physicochemical; settings: chromatographic, econosphere C18 (10 μm, 250 × 4.6 mm), 0.1% TFA water/acetonitrile, 5 to 95% B over 30 min, 1.1 mL/min; radio detection; used as reflection of lipophilicity
Procedure: The HPLC analysis and purification of the peptides were performed on a Shimadzu HPLC system using econosphere C18 reversed-phase column (10 μm, 250 × 4.6 mm). For all HPLC experiments, a gradient system of 0.1% (v/v) TFA in water (solvent A) and 0.1% (v/v) TFA in acetonitrile (solvent B) at a flow rate of 1.1 mL/min was used. The HPLC gradient began with a solvent composition of 95% A and 5% B from 0 to 2.5 min followed by a linear gradient of 95% A and 5% B to 5% A and 95% B over 30 min. The gradient remained at this position for 3 min before switching back to 95% A and 5% B for another 7 min. The major peak isolated and the acetonitrile was then slowly evaporated under a stream of nitrogen gas. Radiochemical purity was estimated by evaluating radioactivity peaks eluted for each ^68Ga-labeled peptide from the HPLC column and calculating the area under the peak (ROI). The main peak of each radiopeptide was isolated and reconstituted in sterile saline for in vitro and in vivo experiments. Radiolabeling of DOTA-coupled BN peptides with ^68Ga was accomplished simply by mixing ~ 20 μg BN peptide with sodium acetate buffer and ^68GaCl3 followed by heating to complete the labeling reaction. By this facile method, a high and reproducible radiolabeling of peptides with ^68Ga was achieved (up to 95%), with a specific radioactivity of greater than 250 Ci/mmol. […] A radiolabeling efficiency of greater than 90% was obtained in all cases, and it ranged between 90 and 95%. […] RP-HPLC retention times of the major peaks, ranging from 18.3 to 20.3 min, reflected slightly variable lipophilicity of these ^68Ga-complexes (Table 1).

[2] = target: T1, BN/GRP receptor-positive MCF7 human breast cancer cells (Homo sapiens, UniProt P30550); assay: Saturation binding assay on MCF7 cells; settings: n = 3-5 experiments; for Bmax (apparent number of binding sites per cell): SD < 15%; for Kd: ~300,000 cells, 0.1-25 nM radiopeptide, 60 min, room temperature, mean ± SD
T1 construct: BN/GRP receptor-positive MDA-MB-231, MCF7, T47D human breast cancer, and PC3 human prostate cancer lines; host or cells: MDA-MB-231, MCF7, T47D (human breast cancer), PC3 (human prostate cancer); intact cells
Procedure: (§1) The cell binding of ^68Ga-radiolabeled peptides into BN/GRP receptor-positive MDA-MB-231, MCF7, T47D human breast cancer, and PC3 human prostate cancer lines (American Type Culture Collection, Rockville, MD, USA) was performed according to the method described previously. In brief, ∼ 300,000 cells (in 300 μL in low-serum media) were incubated with various amounts of radiopeptides, ranging between 0.1 and 25 nM of peptide (prepared from the serial dilutions of HPLC-purified radiopeptides), in duplicate for 60 min at room temperature. The initial concentrations of ^68Ga-labeled peptides were determined according to a well-established HPLC technique with simultaneous detection by UV absorbance. As the amount of BN peptide in the reaction mixture was too small to be detected by UV absorption at 220 nm, the radioactive peptide chromatograms from the HPLC analysis were compared (with UV chromatograms) with those of known concentrations of the corresponding nonradioactive peptides for the mass determination. Incubation was terminated by dilution with cold saline (300 μL) and the cells were pelleted by centrifugation. The cell pellets was then rapidly washed with cold saline to remove any unbound peptide and centrifuged to collect supernatants. Radioactivity in the cell pellet and the washings was measured in a γ-counter. Non-specific binding was determined in the presence of ~ 200-fold molar excess of unlabeled BN peptide. Specific binding is calculated by subtracting the non-specifically bound radioactivity from that of the total binding. The dissociation constant (Kd) was calculated using a plot of cell bound activity versus the concentration of the radioligand using GraphPad Prism software (GraphPad Software Inc., San Diego, CA, USA).

[3] = target: T2, BN/GRP receptor-positive MDA-MB-231 human breast cancer cells (Homo sapiens, UniProt P30550); assay: Saturation binding assay on MDA-MB-231 cells; settings: n = 3-5 experiments; for Bmax (apparent number of binding sites per cell): SD < 15%; for Kd: ~300,000 cells, 0.1-25 nM radiopeptide, 60 min, room temperature, mean ± SD
T2 construct: BN/GRP receptor-positive MDA-MB-231, MCF7, T47D human breast cancer, and PC3 human prostate cancer lines; host or cells: MDA-MB-231, MCF7, T47D (human breast cancer), PC3 (human prostate cancer); intact cells
Procedure: as §1

[4] = format: physicochemical
Procedure: For lipophilicity determination, each HPLC-purified radiopeptide (~ 20 μL, ∼ 25 μCi) was added into a glass tube containing an equal volume mixture of n-octanol and water (1 mL each). The samples were vigorously vortexed for 5 min and subsequently centrifuged (5000 rpm, 5 min) to yield two immiscible layers. Duplicate samples (100 μL) from each layer were carefully taken (to avoid cross-contamination between the layers) for radioactivity measurement using a γ-counter. Partition coefficient was determined by the function: partition coefficient = Log10 (radioactivity in octanol layer/radioactivity in aqueous layer).

[5] = target: T3, BN/GRP receptor-positive T47D human breast cancer cells (Homo sapiens, UniProt P30550); assay: Saturation binding assay on T47D cells; settings: n = 3-5 experiments; for Bmax (apparent number of binding sites per cell): SD < 15%; for Kd: ~300,000 cells, 0.1-25 nM radiopeptide, 60 min, room temperature, mean ± SD
T3 construct: BN/GRP receptor-positive MDA-MB-231, MCF7, T47D human breast cancer, and PC3 human prostate cancer lines; host or cells: MDA-MB-231, MCF7, T47D (human breast cancer), PC3 (human prostate cancer); intact cells
Procedure: as §1

in vivo = format: in vivo, nude mice; settings: female, nude, mouse, in vivo, total radioactivity; for dose excreted at 1 h / dose excreted at 2 h: Radioactivity in Urine + bladder
Outline: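 Female mice bore subcutaneous left-thigh xenografts of ~5 million MDA-MB-231 cells in PBS, grown 4-6 weeks to 200-300 mg. Animals received 20-30 μCi of 68Ga-labelled peptide and were sacrificed at set time points; tumour and organ uptake measured by γ-counting.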

[6] = Uptake in Intestines (measured without their contents)

Bmax (apparent number of binding sites per cell) [2]	Kd [2]	Bmax (apparent number of binding sites per cell) [3]	Kd [3]	Bmax (apparent number of binding sites per cell) [5]	Kd [5]	Compound	Radio-HPLC tR [1]	Log P (octanol/water) [4]	dose excreted at 1 h (in vivo)	dose excreted at 2 h (in vivo)	tissue uptake at 1 h (in vivo; Uptake in Blood)	tissue uptake at 2 h (in vivo; Uptake in Blood)	tissue uptake at 1 h (in vivo; [6])	tissue uptake at 2 h (in vivo; [6])	tissue uptake at 1 h (in vivo; Uptake in Kidneys)	tissue uptake at 2 h (in vivo; Uptake in Kidneys)	tissue uptake at 2 h (in vivo; Uptake in Lungs)	tissue uptake at 1 h (in vivo; Uptake in Muscle)	tissue uptake at 2 h (in vivo; Uptake in Muscle)	tissue uptake at 1 h (in vivo; Uptake in Pancreas)	also measured
6.90 × 10^5 sites/cell	9.8 ± 1.64 nM	5.13 × 10^5 sites/cell	12.7 ± 2.94 nM	4.75 × 10^5 sites/cell	15.3 ± 3.42 nM	CCCC[C@H](NC(=O)[C@H](Cc1c[nH]cn1)NC(=O)[C@H](CC1CCCCC1)NC(=O)[C@@H](NC(=O)[C@H](C)NC(=O)[C@H](Cc1c[nH]c2ccccc12)NC(=O)[C@H](CCC(N)=O)NC(=O)[C@H](CS)NC(=O)CNC(=O)CNC(=O)CCCCCNC(=O)CN1CCN(CC(=O)O)CCN(CC(=O)O)CCN(CC(=O)O)CC1)C(C)C)C(=O)N[C@@H](CCSC)C(N)=O [^68Ga-DOTA-Ahx-BN Cyclen, metal not drawn] ({DOTA-Ahx}-GGCQWAV[Cha]H[Nle]M-NH2)	18.3 min	–	64 ± 9.15%	70 ± 8.7%	0.92 ± 0.15 %ID/g	0.51 ± 0.07 %ID/g	0.86 ± 0.12 %ID/g	0.61 ± 0.06 %ID/g	4.93 ± 0.38 %ID/g	4.01 ± 0.41 %ID/g	0.36 ± 0.03 %ID/g	0.23 ± 0.03 %ID/g	0.19 ± 0.02 %ID/g	1.65 ± 0.14 %ID/g	tissue uptake at 2 h (in vivo; Uptake in Pancreas): 0.82 ± 0.1 %ID/g; tissue uptake at 1 h (in vivo; Uptake in Spleen): 0.25 ± 0.02 %ID/g; tissue uptake at 2 h (in vivo; Uptake in Spleen): 0.14 ± 0.01 %ID/g; tissue uptake at 1 h (in vivo; Uptake in Stomach): 0.73 ± 0.13 %ID/g; tissue uptake at 2 h (in vivo; Uptake in Stomach): 0.34 ± 0.05 %ID/g
6.22 × 10^5 sites/cell	9.32 ± 1.5 nM	5.27 × 10^5 sites/cell	11.6 ± 3.05 nM	4.91 × 10^5 sites/cell	14.5 ± 2.4 nM	CCCC[C@H](NC(=O)[C@H](Cc1c[nH]cn1)NC(=O)[C@H](CC1CCCCC1)NC(=O)[C@@H](NC(=O)[C@H](C)NC(=O)[C@H](Cc1c[nH]c2ccccc12)NC(=O)[C@H](CCC(N)=O)NC(=O)[C@H](CS)NC(=O)CNC(=O)CNC(=O)CCCCCNC(=O)CN1CCN(CC(=O)O)CCN(CC(=O)O)CCN(CC(=O)O)CC1)C(C)C)C(=O)N[C@@H](CCSC)C(N)=O [^68Ga-DOTA-Ahx-BN Tris-, metal not drawn] ({DOTA-Ahx}-GGCQWAV[Cha]H[Nle]M-NH2)	18.3 min	− 1.18 ± 0.06	–	–	–	–	–	–	–	–	–	–	–	–	–

More lines, now with the values behind:

Compound	Bmax (apparent number of binding sites per cell) [2]	Kd [2]	Bmax (apparent number of binding sites per cell) [3]	Kd [3]	Bmax (apparent number of binding sites per cell) [5]	Kd [5]	Radio-HPLC tR [1]	Log P (octanol/water) [4]	dose excreted at 1 h (in vivo)	dose excreted at 2 h (in vivo)	tissue uptake at 1 h (in vivo; Uptake in Blood)	tissue uptake at 2 h (in vivo; Uptake in Blood)	tissue uptake at 1 h (in vivo; [6])	tissue uptake at 2 h (in vivo; [6])	tissue uptake at 1 h (in vivo; Uptake in Kidneys)	tissue uptake at 2 h (in vivo; Uptake in Kidneys)	tissue uptake at 2 h (in vivo; Uptake in Lungs)	tissue uptake at 1 h (in vivo; Uptake in Muscle)	tissue uptake at 2 h (in vivo; Uptake in Muscle)	tissue uptake at 1 h (in vivo; Uptake in Pancreas)	also measured
CCCC[C@H](NC(=O)[C@H](Cc1c[nH]cn1)NC(=O)[C@H](CC1CCCCC1)NC(=O)[C@@H](NC(=O)[C@H](C)NC(=O)[C@H](Cc1c[nH]c2ccccc12)NC(=O)[C@H](CCC(N)=O)NC(=O)[C@H](CS)NC(=O)CNC(=O)CNC(=O)CCC(=O)CNC(=O)CN1CCN(CC(=O)O)CCN(CC(=O)O)CCN(CC(=O)O)CC1)C(C)C)C(=O)N[C@@H](CCSC)C(N)=O [^68Ga-DOTA-ALA-BN Tris-, metal not drawn] ({DOTA}-[X1]GGCQWAV[Cha]H[Nle]M-NH2)	1.05 × 10^5 sites/cell	12.3 ± 1.94 nM	1.12 × 10^5 sites/cell	14.7 ± 2.24 nM	9.68 × 10^4 sites/cell	16 ± 4.01 nM	20.3 min	− 0.88 ± 0.07	–	–	–	–	–	–	–	–	–	–	–	–	–
CCCC[C@H](NC(=O)[C@H](Cc1c[nH]cn1)NC(=O)[C@H](CC1CCCCC1)NC(=O)[C@@H](NC(=O)[C@H](C)NC(=O)[C@H](Cc1c[nH]c2ccccc12)NC(=O)[C@H](CCC(N)=O)NC(=O)[C@H](CS)NC(=O)CNC(=O)CNC(=O)c1ccc(NC(=O)CN2CCN(CC(=O)O)CCN(CC(=O)O)CCN(CC(=O)O)CC2)cc1)C(C)C)C(=O)N[C@@H](CCSC)C(N)=O [^68Ga-DOTA-Abz-BN Cyclen, metal not drawn] ({DOTA-4Abz}-GGCQWAV[Cha]H[Nle]M-NH2)	5.12 × 10^5 sites/cell	–	6.09 × 10^5 sites/cell	–	1.17 × 10^5 sites/cell	–	19.2 min	–	61 ± 9.93%	78 ± 5.89%	1 ± 0.16 %ID/g	0.55 ± 0.1 %ID/g	0.95 ± 0.27 %ID/g	0.54 ± 0.16 %ID/g	6.03 ± 1 %ID/g	5 ± 0.77 %ID/g	1.15 ± 0.23 %ID/g	0.32 ± 0.06 %ID/g	0.26 ± 0.05 %ID/g	2.94 ± 0.43 %ID/g	tissue uptake at 1 h (in vivo; Uptake in Liver): 2.54 ± 0.46 %ID/g; tissue uptake at 2 h (in vivo; Uptake in Liver): 2 ± 0.37 %ID/g; tissue uptake at 1 h (in vivo; Uptake in Lungs): 2.8 ± 0.55 %ID/g; tissue uptake at 2 h (in vivo; Uptake in Pancreas): 1.18 ± 0.31 %ID/g; tissue uptake at 1 h (in vivo; Uptake in Spleen): 0.22 ± 0.07 %ID/g; tissue uptake at 2 h (in vivo; Uptake in Spleen): 0.12 ± 0.02 %ID/g; tissue uptake at 1 h (in vivo; Uptake in Stomach): 1.34 ± 0.29 %ID/g; tissue uptake at 2 h (in vivo; Uptake in Stomach): 0.49 ± 0.12 %ID/g
CCCC[C@H](NC(=O)[C@H](Cc1c[nH]cn1)NC(=O)[C@H](CC1CCCCC1)NC(=O)[C@@H](NC(=O)[C@H](C)NC(=O)[C@H](Cc1c[nH]c2ccccc12)NC(=O)[C@H](CCC(N)=O)NC(=O)[C@H](CS)NC(=O)CNC(=O)CNC(=O)c1ccc(NC(=O)CN2CCN(CC(=O)O)CCN(CC(=O)O)CCN(CC(=O)O)CC2)cc1)C(C)C)C(=O)N[C@@H](CCSC)C(N)=O [^68Ga-DOTA-Abz-BN Tris-, metal not drawn] ({DOTA-4Abz}-GGCQWAV[Cha]H[Nle]M-NH2)	4.86 × 10^5 sites/cell	–	5.89 × 10^5 sites/cell	–	1.0 × 10^5 sites/cell	–	19.3 min	− 1.04 ± 0.10	–	–	–	–	–	–	–	–	–	–	–	–	–

Source: paper PMC6733935, “A convenient and efficient total solid-phase synthesis of DOTA-functionalized tumor-targeting peptides for PET imaging of cancer” (EJNMMI Research, 2019)
